Results as given in patent publication US20220387578A1.

Key:
[1] = target: H1 HA A/Solomon Islands/03/2006 (H1N1), recombinant soluble trimer (influenza A virus)
[2] = target: H3 HA A/Texas/50/2012, recombinant soluble trimer (influenza A virus)
[3] = target: H1 HA A/Texas/36/1991 (H1N1), recombinant soluble trimer (influenza A virus)

Binder | EC50 [1] [µg/mL] | EC50 [2] [µg/mL] | EC50 [3] [µg/mL]
rFluA-20 heavy chain mutant Y34A (antibody, V domains shown) VH: QVQLQESGPGLVKPSETLSLTCSVSGVSVTSDIAYWTWIRQPPGKGLEWIGYIFYNGDTNYNPSLKSRVTMSIDTSKNEFSLRLTSVTAADTAVYFCARGTEDLGYCSSGSCPNHWGQGTLVTVSS VL: DIQMTQSPSSLSASIGDRVTITCRPSQNIRSFLNWFQHKPGKAPKLLIYAASNLQSGVPSRFSGSGSGTEFTLTIRSLQPEDFATYYCQQSYNTPPTFGQGTKVEIK | 0.04 | 0.16 | 0.05
rFluA-20 heavy chain mutant T96A (antibody, V domains shown) VH: QVQLQESGPGLVKPSETLSLTCSVSGVSVTSDIYYWTWIRQPPGKGLEWIGYIFYNGDTNYNPSLKSRVTMSIDTSKNEFSLRLTSVTAADTAVYFCARGAEDLGYCSSGSCPNHWGQGTLVTVSS VL: DIQMTQSPSSLSASIGDRVTITCRPSQNIRSFLNWFQHKPGKAPKLLIYAASNLQSGVPSRFSGSGSGTEFTLTIRSLQPEDFATYYCQQSYNTPPTFGQGTKVEIK | 0.03 | 0.07 | 0.04
rFluA-20 heavy chain mutant E97A (antibody, V domains shown) VH: QVQLQESGPGLVKPSETLSLTCSVSGVSVTSDIYYWTWIRQPPGKGLEWIGYIFYNGDTNYNPSLKSRVTMSIDTSKNEFSLRLTSVTAADTAVYFCARGTADLGYCSSGSCPNHWGQGTLVTVSS VL: DIQMTQSPSSLSASIGDRVTITCRPSQNIRSFLNWFQHKPGKAPKLLIYAASNLQSGVPSRFSGSGSGTEFTLTIRSLQPEDFATYYCQQSYNTPPTFGQGTKVEIK | 0.07 | 0.18 | 0.05
